Reference: the supplement of paper PMC10126150
± gives the standard deviation of the averaged measurements.

Test system: ATP
Test: switch fluorescence ratio, 500 uM ATP over buffer (Cy3 cluster intensity, sum of 5 cycles each) (fold (ratio)); higher = stronger signal-on switching upon ATP binding; sequences stand for … in TCGTCGGCAGCGTCAGATGTGTATAAGAGACAGTTTTTTTTTTTTTTTTTTTTTTTTT…TC
Settings: aptamer strand: ATP DNA aptamer (quencher-CACCTGGGGGAGTATTGCGGAGGAAGG + anchor), 100 nM annealed; ATP concentration: 500 uM
Outline: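 Cy3-labelled switching-strand clusters on a modified Illumina MiSeq flow-cell were annealed to 100 nM quencher-labelled ATP aptamer and imaged first in selection buffer, then after 15 min with 500 uM ATP at 22 °C. NaOH stripping and re-annealing separated each of five buffer/ATP cycles, and clusters outside 100-1000 RFU were excluded. The fluorescence ratio sums target-cycle Cy3 intensity over buffer-cycle Cy3 intensity per cluster and averages it per switch-domain sequence.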
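Further: ATP exposure 15 min at 22 °C before imaging.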

| Sequence | switch fluorescence ratio |
| --- | --- |
| CAGTTAGCAG | 1.06 ± 0.025 |
| CAGTTATTCG | 0.977 ± 0.014 |
| CAGTTATTGG | 0.978 ± 0.038 |
| CAGTTCCCGC | 1.16 ± 0.055 |
| CAGTTCGGGG | 0.9729 ± 0.0094 |
| CAGTTCTCTA | 0.981 ± 0.0068 |
| CAGTTGAGGT | 0.998 ± 0.013 |
| CAGTTGGGGG | 1 ± 0.031 |
| CAGTTTACGT | 0.983 ± 0.023 |
| CAGTTTATGA | 0.971 ± 0.039 |
| CAGTTTGCTG | 0.979 ± 0.018 |
| CAGTTTGGGT | 1.01 ± 0.081 |
| CATAAGGCAA | 1.282 ± 0.0088 |
| CATAAGGTTT | 0.971 ± 0.04 |
| CATAATAATC | 0.98 ± 0.026 |
| CATAATGAAG | 1.01 ± 0.014 |
| CATAATGCGG | 1.005 ± 0.0012 |
| CATAATTAAT | 0.955 ± 0.023 |
| CATACTCTTC | 1 ± 0.065 |
| CATAGCATCC | 1.48 ± 0.2 |
| CATAGCTAGG | 1.004 ± 0.0075 |
| CATAGCTGTG | 1.01 ± 0.026 |
| CATAGGAGGC | 1 ± 0.031 |
| CATAGGCTGG | 0.985 ± 0.016 |
| CATAGGGACG | 0.989 ± 0.083 |

| Sequence | switch fluorescence ratio |
| --- | --- |
| CATAGGGCCA | 1 ± 0.012 |
| CATAGGGGAA | 1.01 ± 0.011 |
| CATAGGTCAT | 1.03 ± 0.058 |
| CATAGTATGT | 0.973 ± 0.067 |
| CATAGTATTA | 0.958 ± 0.04 |
| CATAGTCCTC | 0.964 ± 0.041 |
| CATAGTTACG | 0.994 ± 0.047 |
| CATAGTTCGT | 0.988 ± 0.016 |
| CATATAAGTA | 0.9809 ± 0.0025 |
| CATATGGGGT | 1 ± 0.038 |
| CATATGTCTG | 0.994 ± 0.015 |
| CATATTGGGG | 0.963 ± 0.022 |
| CATATTTAGG | 0.949 ± 0.028 |
| CATCAAGGTA | 1.04 ± 0.025 |
| CATCAGGGCT | 1.06 ± 0.051 |
| CATCATGTCT | 1.01 ± 0.03 |
| CATCCCTCAA | 1.86 ± 0.72 |
| CATCCGTCCG | 1.353 ± 0.0037 |
| CATCGAGTTC | 1.05 ± 0.025 |
| CATCGCATTT | 2.32 ± 0.91 |
| CATCGGGGTT | 1.01 ± 0.002 |
| CATCGTTGGT | 0.999 ± 0.0029 |
| CATCTAGCAC | 2.63 ± 0.42 |
| CATCTGCGTT | 1.58 ± 0.11 |
| CATGAATCTA | 0.98017 ± 0.00042 |

| Sequence | switch fluorescence ratio |
| --- | --- |
| CATGAATTCA | 1.04 ± 0.033 |
| CATGAATTGT | 0.974 ± 0.019 |
| CATGAGTTGT | 1 ± 0.025 |
| CATGATTCA | 0.998 ± 0.041 |
| CATGATTTAT | 1 ± 0.054 |
| CATGCATGTT | 1.01 ± 0.029 |
| CATGCCAGAA | 0.981 ± 0.015 |
| CATGCCTTGT | 1.009 ± 0.0059 |
| CATGCGGATG | 1.001 ± 0.0056 |
| CATGCGGCCG | 0.992 ± 0.02 |
| CATGCTTCAT | 0.988 ± 0.017 |
| CATGGAAGGG | 0.9699 ± 0.0068 |
| CATGGAATAG | 1.07 ± 0.011 |
| CATGGAGAGG | 1.02 ± 0.0086 |
| CATGGATTAA | 1 ± 0.011 |
| CATGGCAACG | 0.993 ± 0.038 |
| CATGGGAAAT | 1.008 ± 0.005 |
| CATGGGCAGC | 0.997 ± 0.016 |
| CATGGGCCGT | 1.02 ± 0.035 |
| CATGGGGCTA | 1.02 ± 0.031 |
| CATGGGGTAA | 0.99 ± 0.014 |
| CATGGGGTGG | 0.9671 ± 0.0014 |
| CATGGGGTGT | 1.01 ± 0.013 |
| CATGGGTGGG | 0.994 ± 0.028 |
| CATGGTATTT | 0.9797 ± 0.0095 |

| Sequence | switch fluorescence ratio |
| --- | --- |
| CATGGTTTTC | 0.962 ± 0.04 |
| CATGTAAGGA | 0.985 ± 0.015 |
| CATGTAAGTT | 0.986 ± 0.018 |
| CATGTAGCGT | 1 ± 0.027 |
| CATGTATAGG | 0.987 ± 0.032 |
| CATGTATGT | 1.07 ± 0.03 |
| CATGTCAAGA | 1.01 ± 0.036 |
| CATGTGAAGC | 1.014 ± 0.0072 |
| CATGTGAAGG | 0.966 ± 0.037 |
| CATGTGGACG | 1.1 ± 0.02 |
| CATGTTAGGG | 1.01 ± 0.033 |
| CATGTTGAGC | 0.9959 ± 0.0081 |
| CATGTTTTGT | 1.02 ± 0.017 |
| CATGTTTTTC | 0.982 ± 0.033 |
| CATTAAATTT | 1.02 ± 0.011 |
| CATTAAGGAG | 1.06 ± 0.092 |
| CATTACAGCC | 1.09 ± 0.028 |
| CATTACTTTT | 1.01 ± 0.014 |
| CATTAGCGCA | 1.047 ± 0.0084 |
| CATTAGTGGG | 0.988 ± 0.011 |
| CATTATGTGA | 0.987 ± 0.051 |
| CATTATTATG | 1.03 ± 0.036 |
| CATTATTTCA | 0.997 ± 0.04 |
| CATTCGTCGG | 1.044 ± 0.0031 |
| CATTGAATAC | 1.36 ± 0.061 |

| Sequence | switch fluorescence ratio |
| --- | --- |
| CATTGAGTGC | 1.034 ± 0.0017 |
| CATTGATATG | 0.9912 ± 0.0091 |
| CATTGCGAGG | 1.02 ± 0.039 |
| CATTGCTTGG | 1.039 ± 0.0012 |
| CATTGGAGGA | 1.018 ± 0.0011 |
| CATTGGAGTC | 0.998 ± 0.043 |
| CATTGGCGTA | 1.02 ± 0.023 |
| CATTGGTGTG | 0.985 ± 0.047 |
| CATTGTGGTA | 1.014 ± 0.0033 |
| CATTGTTGTT | 1.01 ± 0.0098 |
| CATTGTTTGA | 1.03 ± 0.021 |
| CATTTACACT | 1.05 ± 0.059 |
| CATTTAGGAT | 0.985 ± 0.018 |
| CATTTAGGCT | 0.9997 ± 0.0058 |
| CATTTCACGC | 1.0996 ± 0.00041 |
| CATTTCGAAC | 1.02 ± 0.027 |
| CATTTGGCGG | 1 ± 0.013 |
| CATTTGGGCC | 0.999 ± 0.017 |
| CATTTGTCCG | 1.01 ± 0.071 |
| CATTTGTTCT | 1 ± 0.049 |
| CATTTTATTT | 0.996 ± 0.032 |
| CATTTTGATG | 0.966 ± 0.011 |
| CATTTTGTAT | 0.998 ± 0.013 |
| CATTTTTGGC | 1.03 ± 0.027 |
| CATTTTTTGG | 0.998 ± 0.019 |

| Sequence | switch fluorescence ratio |
| --- | --- |
| CATTTTTTGT | 1.027 ± 0.0052 |
| CATTTTTTTG | 1 ± 0.017 |
| CCAAAGGGAT | 1.28 ± 0.38 |
| CCAAAGGGGA | 1.15 ± 0.27 |
| CCAAAGGTTT | 1.13 ± 0.22 |
| CCAAATGTCT | 1.016 ± 0.0049 |
| CCAAATTTAA | 1.03 ± 0.01 |
| CCAACGGGGA | 1.1 ± 0.085 |
| CCAACGGTGC | 2.24 ± 0.095 |
| CCAACTTGGA | 0.9849 ± 0.003 |
| CCAAGCGCCC | 1.63 ± 0.23 |
| CCAAGCGCCG | 1.12 ± 0.13 |
| CCAAGGACAC | 1.1498 ± 0.001 |
| CCAAGGAGGG | 0.999 ± 0.017 |
| CCAAGGAGTC | 0.992 ± 0.024 |
| CCAAGGATAA | 1.047 ± 7.2e-05 |
| CCAAGGCTTA | 1.06 ± 0.063 |
| CCAAGGGTTT | 0.993 ± 0.06 |
| CCAATAAATT | 0.974 ± 0.018 |
| CCAATAGACG | 1.01 ± 0.03 |
| CCAATCCAGT | 1.01 ± 0.013 |
| CCAATGGGGG | 0.982 ± 0.04 |
| CCAATTGTGG | 0.9977 ± 0.0056 |
| CCAATTTTAA | 0.985 ± 0.029 |
| CCACAGGGTG | 4.53 ± 1.5 |

| Sequence | switch fluorescence ratio |
| --- | --- |
| CCACAGTAAT | 4.75 ± 0.34 |
| CCACCGGGCC | 1.36 ± 0.076 |
| CCACCTTACG | 1.54 ± 0.077 |
| CCACGCGGCA | 1.19 ± 0.091 |
| CCACGGACAA | 1.645 ± 0.0082 |
| CCACGGGTTA | 1.045 ± 0.005 |
| CCACGGTTAG | 0.981 ± 0.023 |
| CCACGTTGAA | 1.05 ± 0.033 |
| CCACTAGTCG | 1.02 ± 0.016 |
| CCACTGTGGT | 0.978 ± 0.013 |
| CCAGACACAG | 0.9849 ± 0.002 |
| CCAGACTTTT | 0.999 ± 0.043 |
| CCAGAGACCG | 1.04 ± 0.012 |
| CCAGAGAGCC | 1.04 ± 0.028 |
| CCAGAGGGAT | 0.992 ± 0.024 |
| CCAGATGGCA | 1.02 ± 0.082 |
| CCAGATTTTA | 0.992 ± 0.015 |
| CCAGCAGGGA | 1.37 ± 0.49 |
| CCAGCCAATA | 3.36 ± 0.12 |
| CCAGCGGGGC | 1.05 ± 0.019 |
| CCAGGAACTC | 1.02 ± 0.025 |
| CCAGGACTGC | 0.972 ± 0.036 |
| CCAGGGCAGC | 1.06 ± 0.079 |
| CCAGGGCGTG | 1.02 ± 0.069 |
| CCAGGGGGAA | 1.09 ± 0.12 |

| Sequence | switch fluorescence ratio |
| --- | --- |
| CCAGGGGGGG | 1.24 ± 0.32 |
| CCAGGGGGTT | 1.51 ± 0.59 |
| CCAGGTAGG | 1.24 ± 0.068 |
| CCAGGTTTCA | 1.03 ± 0.046 |
| CCAGGTTTGT | 1.17 ± 0.016 |
| CCAGGTTTTG | 1.08 ± 0.031 |
| CCAGTAAAAT | 1.01 ± 0.019 |
| CCAGTAAATT | 0.993 ± 0.046 |
| CCAGTAATGT | 1.04 ± 0.041 |
| CCAGTACTGA | 1.021 ± 0.0094 |
| CCAGTCATTT | 1.03 ± 0.027 |
| CCAGTGGGGC | 1.01 ± 0.072 |
| CCAGTGTGTG | 1.09 ± 0.062 |
| CCAGTTATGG | 0.999 ± 0.068 |
| CCAGTTTGCA | 1.02 ± 0.017 |
| CCATAAATAG | 1.169 ± 0.0077 |
| CCATACGGGG | 0.998 ± 0.023 |
| CCATATAGAG | 1.02 ± 0.027 |
| CCATGCGATG | 1.21 ± 0.1 |
| CCATGGTTGT | 1.011 ± 0.005 |
| CCATGGTTTT | 1.0024 ± 0.00092 |
| CCATGTATAA | 1.02 ± 0.016 |
| CCATGTCAGC | 1.03 ± 0.021 |
| CCATGTGAAG | 0.992 ± 0.027 |
| CCATGTGTAG | 1 ± 0.017 |
